Laboratory results as given in publication PMC5889392, “Cryptic glucocorticoid receptor-binding sites pervade genomic NF-κB response elements”.

What was measured:
full-length GR [1] = target: T1, full-length GR (Homo sapiens, UniProt P04150 1-777); test: fluorescence polarization; settings: triamcinolone acetonide; Fig. 2d legend gives 35 nM; FP: 10 nM 6-FAM dsDNA, 100 mM NaCl, 20 mM Tris-HCl pH 7.4, 5% glycerol, temperature not stated; NMR: 20 mM phosphate pH 6.7, 100 mM NaCl, 1 mM TCEP, 10% D2O …
full-length GR [2] = target: T1, full-length GR; test: fluorescence polarization; triamcinolone acetonide; FP: 10 nM 6-FAM dsDNA, 100 mM NaCl, 20 mM Tris-HCl pH 7.4, 5% glycerol, temperature not stated; NMR: 20 mM phosphate pH 6.7, 100 mM NaCl, 1 mM TCEP, 10% D2O, 10 and 25 C (NOESY), 25 C (HSQC); settings: protein: recombinant; tags: N-terminal 6xHis; chain copies: 2; label: 5'-FAM on strand 1; blunt
GR DBD [3] = target: T2, GR DBD (Homo sapiens, UniProt P04150 417-506); test: X-ray crystallography; 2.40 A refinement; FP: 10 nM 6-FAM dsDNA, 100 mM NaCl, 20 mM Tris-HCl pH 7.4, 5% glycerol, temperature not stated; NMR: 20 mM phosphate pH 6.7, 100 mM NaCl, 1 mM TCEP, 10% D2O, 10 and 25 C (NOESY), 25 C (HSQC); settings: protein: recombinant; tags: N-terminal 6xHis with TEV site
GR DBD [4] = target: T2, GR DBD; test: X-ray crystallography; 2.20 A; FP: 10 nM 6-FAM dsDNA, 100 mM NaCl, 20 mM Tris-HCl pH 7.4, 5% glycerol, temperature not stated; NMR: 20 mM phosphate pH 6.7, 100 mM NaCl, 1 mM TCEP, 10% D2O, 10 and 25 C (NOESY), 25 C (HSQC); settings: protein: recombinant; tags: N-terminal 6xHis with TEV site
GR DBD [5] = target: T2, GR DBD; test: X-ray crystallography; 2.25 A; FP: 10 nM 6-FAM dsDNA, 100 mM NaCl, 20 mM Tris-HCl pH 7.4, 5% glycerol, temperature not stated; NMR: 20 mM phosphate pH 6.7, 100 mM NaCl, 1 mM TCEP, 10% D2O, 10 and 25 C (NOESY), 25 C (HSQC); settings: protein: recombinant; tags: N-terminal 6xHis with TEV site
GR DBD [6] = target: T2, GR DBD; test: fluorescence polarization; two-site binding curve; Kd in Supplementary Table 5; FP: 10 nM 6-FAM dsDNA, 100 mM NaCl, 20 mM Tris-HCl pH 7.4, 5% glycerol, temperature not stated; NMR: 20 mM phosphate pH 6.7, 100 mM NaCl, 1 mM TCEP, 10% D2O, 10 and 25 C (NOESY), 25 C (HSQC); settings: protein: recombinant, tags: N-terminal 6xHis with TEV site, blunt
GR DBD [7] = target: T2, GR DBD; test: X-ray crystallography; 1.85 A; FP: 10 nM 6-FAM dsDNA, 100 mM NaCl, 20 mM Tris-HCl pH 7.4, 5% glycerol, temperature not stated; NMR: 20 mM phosphate pH 6.7, 100 mM NaCl, 1 mM TCEP, 10% D2O, 10 and 25 C (NOESY), 25 C (HSQC); settings: protein: recombinant; tags: N-terminal 6xHis with TEV site

T2 sequence (P04150 417-506): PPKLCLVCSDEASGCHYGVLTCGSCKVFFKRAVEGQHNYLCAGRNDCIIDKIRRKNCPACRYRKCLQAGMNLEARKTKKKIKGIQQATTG
T1 sequence (P04150 whole entry): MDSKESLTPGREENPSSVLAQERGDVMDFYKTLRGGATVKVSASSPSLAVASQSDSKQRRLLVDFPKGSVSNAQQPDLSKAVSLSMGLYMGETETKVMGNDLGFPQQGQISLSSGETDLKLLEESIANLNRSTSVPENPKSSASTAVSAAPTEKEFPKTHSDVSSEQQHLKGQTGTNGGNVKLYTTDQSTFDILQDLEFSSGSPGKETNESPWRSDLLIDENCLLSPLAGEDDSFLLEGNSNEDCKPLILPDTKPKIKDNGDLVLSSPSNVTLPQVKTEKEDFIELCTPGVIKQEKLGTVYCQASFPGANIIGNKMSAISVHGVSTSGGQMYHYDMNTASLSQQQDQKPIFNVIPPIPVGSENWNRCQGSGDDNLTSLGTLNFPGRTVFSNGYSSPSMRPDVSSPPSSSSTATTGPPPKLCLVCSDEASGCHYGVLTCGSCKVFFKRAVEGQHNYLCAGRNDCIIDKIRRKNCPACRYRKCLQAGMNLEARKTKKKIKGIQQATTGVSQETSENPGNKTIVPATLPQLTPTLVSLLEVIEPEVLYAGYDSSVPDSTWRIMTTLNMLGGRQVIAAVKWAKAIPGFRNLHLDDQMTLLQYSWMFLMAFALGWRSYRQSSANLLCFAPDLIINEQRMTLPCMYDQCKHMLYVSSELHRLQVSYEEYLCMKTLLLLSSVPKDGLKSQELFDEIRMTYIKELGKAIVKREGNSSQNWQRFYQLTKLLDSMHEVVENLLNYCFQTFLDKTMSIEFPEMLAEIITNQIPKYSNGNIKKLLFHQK

Molecule: SGK1 (+)GRE
- Kd (full-length GR [1]): 34 nM

B1: IL8 kBRE (dsDNA)
DNA 1: AATCGTGGAATTTCCTCTG
DNA 2: CAGAGGAAATTCCACGATT
- Kd (full-length GR [2]): 51 nM

B2: ICAM1 kBRE 16 bp crystal DNA (dsDNA)
DNA 1: TTGGAAATTCCGGAGC
DNA 2: GCTCCGGAATTTCCAA
- binding result (GR DBD [3]): binds

B3: PLAU kBRE 16 bp crystal DNA (dsDNA)
DNA 1: ATCAGGAAATTTCCAG
DNA 2: CTGGAAATTTCCTGAT
- binding result (GR DBD [4]): binds

B4: RELB kBRE 16 bp crystal DNA (dsDNA)
DNA 1: CCGGGGAATTCCGCCG
DNA 2: CGGCGGAATTCCCCGG
- binding result (GR DBD [5]): binds

B5: CCL2 kBRE 16 bp crystal DNA (dsDNA)
DNA 1: AGTGGGAATTTCCACT
DNA 2: AGTGGAAATTCCCACT
- binding result (GR DBD [4]): binds

B6: PLAU kBRE (dsDNA)
DNA 1: CCCTGGGAATTTCCTGATA
DNA 2: TATCAGGAAATTCCCAGGG
- binding result (GR DBD [6]; label: 5'-FAM on strand 1): binds

B7: CCL2 kBRE (dsDNA)
DNA 1: GAGTGGGAATTTCCACTCA
DNA 2: TGAGTGGAAATTCCCACTC
- binding result (GR DBD [6]): binds

B8: IL8 kBRE 16 bp crystal DNA (dsDNA)
DNA 1: ATCGTGGAATTTCCTC
DNA 2: GAGGAAATTCCACGAT
- binding result (GR DBD [7]): binds
